For this experiment, the target named is PfPDI8 (PF3D7_0827900), 3xV5-tagged at the endogenous locus (P. falciparum (3D7)). Briefly: cross-linking + co-IP.

“PfBiP, the Hsp70 Binding immunoglobulin Protein (natural protein)”: the fold increase of co-immunoprecipitated PfBiP with DVSF against without DVSF stood at 2 fold.

For the origin of these results see publication doi:10.1101/2020.05.13.093591.
